Measured values published in the nanobody polyreactivity screen of Harvey et al. (2022).

Assay: yeast display, Sf9 membrane polyspecificity reagent, FACS + sequencing; frameworks hold sequencing errors
Summary of the method: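 Sorting gates, low and high (top ~1%), were placed on anti-HA fluorescence to track expression and on streptavidin fluorescence to track reagent binding. A clone's polyreactivity label is taken from the gate it came out of. The reagent was 10% biotinylated, detergent-solubilized Sf9 membrane, applied for 1 hour at 4 °C to galactose-induced yeast display cells.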

| Sequence | polyreactivity (PSR sort gate) |
| --- | --- |
| QVQIVESGGGLVQAVGSLRLSCAASGRIFHYNSMRWYRQAPGKERELVAAITDSTGGSTYYADSVKGRFTISRDNAKNTVYLQMNSLKPEDTAVYYFAAQDYQYSDYQWWFGYWGQGTKVTVSS | low polyreactivity |
| QVQIVESGGRIVQAGGSLRLSCAASGSTFGWYTMGWYRQSPGKESELVATISWRGGTTYYADSVKGRFTISRDNAKNTVYLQMNSLKPEDTAVYYCAARRYRASSRGYGYWGQGTQVTVSS | high polyreactivity |
| QVQIVESGGVLDQAGGSLRLSCAATGSTFAKNAMGWYRQAPGKERELVAAITSGGSTYYADSVKGRFTISRDNAKNTVYLQMYSLKPEDTAVYYCAVDYPWDIFIYWVQNYDHWGHGTQVTVSS | high polyreactivity |
| QVQIVESGGVLVQAGGSLRLSCAASGFNYTNYAMGWYIQSPGKERELVAAITYSGGSKYYADSVKGRFTISRDIAKNTVYLQMNSLKPEDTAVFFCNKYPSFYGAGYYWGQGTQVTVSS | high polyreactivity |
| QVQIVESGGVLVQAGGSLRLSCAASGITLRVYVMGWYRQAPGKERELVAAITSRGDRTYYADSVKGRSTISRDNAKNTVYLQMNSLKPEDTAVYDCAARYYSYPPGLSQTRLTYYYWGQGTQVTVSS | high polyreactivity |
| QVQIVESGVGLVQAGGSLRLSCAASGRIVSSKVMGLYRQAAGKERELVAAITSGGSTYYADSVKGRFTISRDNAKNTVYLQMNSLKPEDTAVYYCAASYWVLRYRYDYWGQGTQVTVSS | high polyreactivity |
| QVQIVESRGGLVQAGGSLRLSCAASGFIIYKYALGWYRQAPRKERELVAAISSSGGNTYYADSVKGRFTNSRDNAKNTVFLQMMSLKPEDTAVYYCAADYYVSKSRYYSYGYWGQGTQVTVSS | high polyreactivity |
| QVQIVESRGGLVQAGVSLRLSCAASGRIFAKNVMGWYRQAPGKDRELVAAISRSGGSTYYADSVKGRFTISRDNAKNTVYLQMNSLKPEDTAVYYCAATPAYGRRWSRYGYWGQGTQVNVSS | high polyreactivity |
| QVQIVESVGGLVQAGGSLRLSCAASGSTVERYAMGWYRKAPGKERELVARITWSGGSTYYADSVKGRFTISLDNAKNTVYVQMNSLKPEDTAVYYCNRDTRYPGYWRVFAKNNYWGQGTQVTVSS | high polyreactivity |
| QVQLAESGGGLVQAGGSLRLSCAASGSTSAKNVMGWYRQPPGTERELVAAISRSGGRTYYADSVKGRFTISRDNAKNTVYLQMNSLKPVDTAVYYCYTRYVKGFYWGQGTLVTVSS | high polyreactivity |
| QVQLDESGGGLVQAGGSLRLSCADSGRIFDRNALGWYRQAPGKESELVAAISSRGTSTYYADSVKGRFTISRDNAKNTVYLQMNSLKPEDTAVYYCAARPRYASDEFGYWGQGTQVTVSS | low polyreactivity |
| QVQLEDSGGGLVQAGGSLPLSCAASGLTFYVNARGWNRQAPGKERELVAGIDSGGSTYYAASVKGRFTISRDNAKNTVYLQMNSLKPEDTAVYYCAADEGYVWPYYGWGFGKYDYWGEGTQVTVSS | low polyreactivity |
| QVQLEDSGGGLVQAGGSLRLSCAASGFIFGLNAMGWNRQAPGKERELVAAIRSASSTNYADSVKGRFTISRDNAKNTVYLQMNSLKPEDTAVYYCAAEYVTYQHGFWGYDYWGQGTQVTVSS | low polyreactivity |
| QVQLEDSGGGLVQAGGSLRLSCAASGLNLYRYAMGVYRQEPGKEREFVASISWSGGSTYYADSVKGRFTISRDNAKNTVYLQMNSLKPEDTAVYYCATDSDTSQLGYDYWGQGTQVTVAS | low polyreactivity |
| QVQLEDSGGGLVQAGGSLRLSCAASGRTFHRNAMGWYRQAPGKERELVAAITGSGGSTYYADSVKGRFTISRDNAKNTVYLQMNSLKPEDTAVYYCATYSYPERTGGQRTHYYWGQGTQVTVSS | high polyreactivity |
| QVQLEDSGGGLVQAGGSLRLSCAASGSTFNQYAMGWYRQATGKERELVAAITTSGARTYYADSVKGRFTISRDNAKNTVYLQMNSLKPEDTAVYYCNAGYFSYRYRYGYDYWGLGTQVTVSS | high polyreactivity |
| QVQLEDSGGGLVQAGGSLRLSCAASGSTFRYYTMGWYRQAPGKEREFVASIRTSGGSTYADSVKGRFTISRDNAKNTVYLQMNSLKPEDTAVYYCAARGGYRYTRYDYWGQGTQVTVSS | high polyreactivity |
| QVQLEDSGGGLVQAGGSLRLSCAASGSTWVYAMGWYRQAPGTERELVASITVSGGSTYYADSVKGRFTISRDNAKNTVYLQMNSLKPEDTAVYYCAAYDSYRKFKYWRQGTQVTVSS | high polyreactivity |
| QVQLEDSGGGLVQAGGTLRLSCAASGIIFAYNYMGWNRHATRKERELVATISSAGNTNYADSVKGRFTISRDNAKNTVYLQMNSLKPEETAVYYCAAEFFIVVTDEYDYWGQGTQVTVSS | low polyreactivity |
| QVQLEDSGRGLFQAGGSLRLSCAASGSNFAHYAMGWYIQAQGKERELVARFSWSGGSTYYADSVKGRFTISRDNAKNTVYLQMNSLKPEDTAVYYCAADHLYWGLEYEPWGQGTQVTVSS | low polyreactivity |
| QVQLEESAGGLVQAGGSLRLSCAASGSIFFWNDLGWYRQAPGKERELVAAISWSGGSTSYADSVKGRFTISRDNAKNTVYLQMNSLKPEDTAVYYCAADFYYRTLYGYIGMDYWGQGTQVTVSS | low polyreactivity |
| QVQLEESAGGLVQAGGSLSLICAASGTIVSYAMGWYRQAPGKQRELVAAISRSGGSTYYADSVKGRFTIARDNEKNTVYLQMNSLKPEDTAVYYCAARWRYLTLYAGFNYWGQGTQVTVSS | high polyreactivity |

| Sequence | polyreactivity (PSR sort gate) |
| --- | --- |
| QVQLEESGAGLVQAGGSLRLSCAPSGIIYDGNAMGWYRKAPGKERELLASITSDSSTNYADSVKGRFTISRDNAKYTVYLHMNSLKPQDTAVYYCAADHWIAPRRDYWGQGTQVTVSS | low polyreactivity |
| QVQLEESGAGVVQAGGSLRLSCAASGRTFQYNAMGWYRPAPGTERELVAAISSSGGSTYYADSVKGRFTISRDNAKNTVYFQMNSLNPEDTAVYYCNAYSQSWNFYGVGDYWGQGTQVTVSS | low polyreactivity |
| QVQLEESGGALVQAGGSLRLSCAASGFIFTLYAMGWYRQAPGKEREFVAAISWSDGSTTYADSVKGRFTISRDNAKNTVYLQMNSLNPEDTAVYYCAAVTSSYIRGLVYHFYYWGQGTQVTVSS | low polyreactivity |
| QVQLEESGGALVQAGGSLRLSCAASGNTFGPKAMGWYRQAPGKERELVASINIGGRTNYADSVKGRFTISRDNAKNSVYLQLKSLKPEDTAVYYCNAGSGVQVVWYNAYREYEYWGQGTQVTVSS | low polyreactivity |
| QVQLEESGGCLDQAAGSLRLTCADSGFIFLPNAMGWYRQAPGKERELVADITYDGGTTYYADSVKGRFTISRDNAKNTVYLQKNSLKPEDTAVYYCNAETYEFHRSRGDYDYWGQGTQVTVSS | low polyreactivity |
| QVQLEESGGGIVQAGGSLRLSCAASGRTFGANAMGWYRQAPGKERELVAAISSSDDSTYYADSVKGRFTISRDNAKNTVYLQMNSLKPEDTAVYYCAAEDVYPQLDYWGQGTQVTVSS | low polyreactivity |
| QVQLEESGGGLDQAGGILRLSFAASGSTIGGYAMGWYSQATGNERELVAAITRSGGRTYYADSVKGRFTISRDNGKNTVYLQMNSLKPEDTAVYYCATLVTNGRYDSWGQGTQVTVSS | high polyreactivity |
| QVQLEESGGGLDQAGGSLRLSCAASARTFDGYAMGWYRQAPGKERELVAAISSGDSTYYADSVKGRFTISRDKAKNTVYLQMNSLKPEDTAVYYCAASFYYSSYGYWGQGTQVTVSS | low polyreactivity |
| QVQLEESGGGLDQAGGSLRLTCAASGSTFLFYAMGWYRQAPGKESELVAAIRWSGGSTYADSVKGRFTISRDNAKYTVYLPMNSLKPEDTAVYYCATTYRPTFRRHYKYWGQGTQVTVSS | low polyreactivity |
| QVQLEESGGGLFQAGGSLRLSCAASGSTFYAYAMGWYRQAPGKERELVAAISSDGTNYADSVKGRFTISRDNAKNTVYLQMNSLKPEDTAVYYCAADMLLYSSQDNDYWGQGTLVTVSS | low polyreactivity |
| QVQLEESGGGLFQAGGSLRLSCAASVSSYRSYARGWYRTATGKERELVAAISVSGGSTYYADSVKGRFTISRDNAKNTVFLQMNSLKPEDTAVYYCAASYVPSYAPGRYYYWGQGTQVTVSS | high polyreactivity |
| QVQLEESGGGLLQAGGSLRLSCAASGRTLGGYTMGWYRPAPGKERELVSAITTGGSTNYADSVKGRFTISRDNAKNTVYLQMNSLKPEDTAVYFCATELVFDKRYWYDYWGQGSQVTVSS | low polyreactivity |
| QVQLEESGGGLMQAGGNLRLSCAASGYISTHYDMDWYRQAPGRERELVARIDDGAITNYADSVKGRFTISRDNATNTVYLQMNSLKPEDTAVYYCAVYSGDDYYHDYWGQGTQVTVSS | low polyreactivity |
| QVQLEESGGGLVQAGASLRLICAASGFTFARNAMGWYRQAPGKERELVASITSGGSTNYADSVKGRFTISRDNAKNTVYLQMNSLKPEETAVYYCAAYQWIAPRRDYWGQGTQVTVSS | low polyreactivity |
| QVQLEESGGGLVQAGASLRLSCAASGNIFPRNAMGWYRQAPGKERELVAAISASGDNTYYADSVKGRFTISRDNAKNTVYLQMNSLKPEDTEVYYCAAATFYESIQPYESVAYDYWGQGTQVTVSS | low polyreactivity |
| QVQLEESGGGLVQAGGILRLSCAASGFTLVYYAMGSYRQAPGKERELVATISGNGGRTYYADSVKGRFTISRDNAKNTDNLQMNSLKPEDTAVYYCAALLYIGSVGYDYWGQGTQVTVSS | low polyreactivity |
| QVQLEESGGGLVQAGGRHRLSCAASGNIFTSYTMGWYRQAPGKERELVAAISGGGGSTYYADSVKGRFTISRDNAKNTVYLQMNSLKPEDTAVYYCNAGRWWRRGYGYWGQGTQVTVSS | high polyreactivity |
| QVQLEESGGGLVQAGGRLRLSCAASGITFGSYAMGWYRQAPGKERELVAAITRSDITNYADSVKGRFTISRDNAKNSVYLQMNRLNREDTAVYYCNKTPDRHRRYFGYGYWGHGTQVTVSS | low polyreactivity |
| QVQLEESGGGLVQAGGRLRLSCAASGSTFDPNTMGWYRQAPGKERELVATITSVDSTNYADSVKGRFTISRDNAKNTVYLQMNSLKPEDTAVYYCNAAYGGVFFYAYDYWGQGTQVTVSS | low polyreactivity |
| QVQLEESGGGLVQAGGRLRLSCDASGITLLLKAMGWYRQAPGKERELFAAISEGGGSTYYADSVKGRFTISRDNAKNTVYLQMNSLTPEDTAVYYCAADEYTPDYGQGYDYWGQGTQVTVSS | low polyreactivity |
| QVQLEESGGGLVQAGGSHRLSCAASGQIFRHYAMGWYRQAPGKEREFVAAITGSGGNTYYADSLKGRFTISRDNAKNTVYLQMNSLKPEDTAVYYCAVRAYPSYPRGVYAYYYWGQGTQVTVSS | high polyreactivity |
